No end group written: not given here. *: point of attachment. FITC = O=C1OC2(c3ccc(O)cc3Oc3cc(O)ccc32)c2ccc(NC(=S)*)cc21
T1: PBP1bγ (E. coli, UniProt P02919-2 1-799)
T1 sequence: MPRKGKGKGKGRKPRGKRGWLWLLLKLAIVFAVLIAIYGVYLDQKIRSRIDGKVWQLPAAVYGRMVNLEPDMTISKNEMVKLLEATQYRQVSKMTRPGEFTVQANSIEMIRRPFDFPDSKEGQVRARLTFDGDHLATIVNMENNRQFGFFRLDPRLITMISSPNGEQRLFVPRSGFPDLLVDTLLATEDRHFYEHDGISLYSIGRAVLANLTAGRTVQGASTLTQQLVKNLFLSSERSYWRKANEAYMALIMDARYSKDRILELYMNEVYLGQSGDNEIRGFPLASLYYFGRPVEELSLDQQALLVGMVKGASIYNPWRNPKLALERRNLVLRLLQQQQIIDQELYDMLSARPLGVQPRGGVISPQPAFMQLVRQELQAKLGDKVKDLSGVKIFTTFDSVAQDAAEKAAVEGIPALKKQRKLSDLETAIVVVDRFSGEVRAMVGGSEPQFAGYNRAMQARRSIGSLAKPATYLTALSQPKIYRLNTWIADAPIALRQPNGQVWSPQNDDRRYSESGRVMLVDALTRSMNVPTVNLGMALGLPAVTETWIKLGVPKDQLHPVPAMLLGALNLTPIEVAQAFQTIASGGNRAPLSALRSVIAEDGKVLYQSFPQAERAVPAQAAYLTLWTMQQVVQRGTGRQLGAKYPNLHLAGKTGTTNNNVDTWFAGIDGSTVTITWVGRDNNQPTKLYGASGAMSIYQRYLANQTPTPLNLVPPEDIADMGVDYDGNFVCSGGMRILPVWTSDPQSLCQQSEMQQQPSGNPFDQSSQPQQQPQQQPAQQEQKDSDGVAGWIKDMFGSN

T2: PBP1b (58-804) (E. coli, UniProt P02919 58-804)
T2 sequence: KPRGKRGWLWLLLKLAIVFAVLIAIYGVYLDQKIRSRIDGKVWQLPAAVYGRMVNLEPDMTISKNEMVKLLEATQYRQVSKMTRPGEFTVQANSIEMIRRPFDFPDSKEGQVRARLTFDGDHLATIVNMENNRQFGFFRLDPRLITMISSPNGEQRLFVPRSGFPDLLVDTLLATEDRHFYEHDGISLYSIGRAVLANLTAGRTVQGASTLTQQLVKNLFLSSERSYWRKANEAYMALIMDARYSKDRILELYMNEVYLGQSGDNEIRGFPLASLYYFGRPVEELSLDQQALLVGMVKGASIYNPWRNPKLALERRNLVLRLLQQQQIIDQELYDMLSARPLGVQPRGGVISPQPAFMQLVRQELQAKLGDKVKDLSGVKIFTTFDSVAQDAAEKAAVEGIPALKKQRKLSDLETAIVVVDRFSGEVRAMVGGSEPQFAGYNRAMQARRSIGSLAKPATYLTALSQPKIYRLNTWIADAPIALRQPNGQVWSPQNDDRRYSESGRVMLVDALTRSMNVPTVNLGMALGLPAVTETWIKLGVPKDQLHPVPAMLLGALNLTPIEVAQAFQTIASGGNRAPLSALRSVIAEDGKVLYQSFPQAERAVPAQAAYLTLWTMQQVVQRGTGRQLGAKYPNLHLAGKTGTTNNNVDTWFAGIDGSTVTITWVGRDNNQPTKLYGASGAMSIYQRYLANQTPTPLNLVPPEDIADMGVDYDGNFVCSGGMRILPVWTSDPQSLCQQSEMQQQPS

B1: FITC labeled peptide (FITC-K69-Q93) of FtsN (peptide)
peptide: {FITC}-KVTGNGLPPKPEERWRYIKELESRQ
B2: ^EFtsN peptide (L75-Q93), unlabeled (peptide)
peptide: LPPKPEERWRYIKELESRQ

How the values were obtained:
PBP1bγ = molecular target: T1, PBP1bγ; assay: fluorescence polarisation
PBP1b (58-804) = molecular target: T2, PBP1b (58-804); assay: crystal structure

Binder | Kd (PBP1bγ) [µM] | binding result (PBP1b (58-804))
B1 | 8.1 ± 1.7 | 
B2 |  | binds
